{"source": "paper PMC4367193", "about": "(Biochemistry, 2009)", "molecules": {"B1": {"name": "ECP: Eosinophil cationic protein, very similar charge and molecular mass compared to MBP, negative control (protein, UniProt P12724 28-160, looked up)", "Eosinophil cationic protein": "RPPQFTRAQWFAIQHISLNPPRCTIAMRAINNYRWRCKNQNTFLRTTFANVVNVCGNQSIRCPHNRTLNNCHRSRFRVPLLHCDLINPGAQNISNCTYADRPGRRFYVVACDNRDPRDSPRYPVVPVHLDTTI"}, "B2": {"name": "MBP: Purified human MBP (purchased from Chemicon International) (protein, UniProt P02686 1-304, looked up)", "Myelin basic protein": "MGNHAGKRELNAEKASTNSETNRGESEKKRNLGELSRTTSEDNEVFGEADANQNNGTSSQDTAVTDSKRTADPKNAWQDAHPADPGSRPHLIRLFSRDAPGREDNTFKDRPSESDELQTIQEDSAATSESLDVMASQKRPSQRHGSKYLATASTMDHARHGFLPRHRDTGILDSIGRFFGGDRGAPKRGSGKDSHHPARTAHYGSLPQKSHGRTQDENPVVHFFKNIVTPRTPPPSQGKGRGLSLSRFSWGAEGQRPGFGYGGRASDYKSAHKGFKGVDAQGTLSKIFKLGGRDSRSGSPMARR"}}, "key": {"[1]": {"target": "T1, Aβ42WT (Homo sapiens, UniProt P05067)", "T1 sequence (P05067 672-713 limits assumed)": "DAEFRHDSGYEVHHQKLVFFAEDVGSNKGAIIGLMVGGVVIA", "assay": "Circular dichroism spectroscopy, Aβ42WT β-sheet formation", "format": "biochemical"}, "[2]": {"target": "T1, Aβ42WT", "format": "biochemical", "conditions": "37°C"}, "[3]": {"target": "Aβ40DI", "assay": "Surface plasmon resonance, binding to Aβ40DI", "conditions": "ECP negative control; SPR"}, "[4]": {"test_system": "MBP/Aβ42WT interaction", "assay": "Competitive co-immunoprecipitation, binding of Aβ42WT to MBP", "design": "species or system human", "conditions": "data not shown"}, "[5]": {"target": "T1, Aβ42WT", "assay": "Surface plasmon resonance, binding to immobilised Aβ42WT"}, "[6]": {"target": "Aβ40WT", "assay": "Surface plasmon resonance, binding to Aβ40WT", "conditions": "ECP negative control; SPR"}, "[7]": {"test_system": "Aβ40DI", "conditions": "previous study; ref [25] Hoos et al. 2007; cited from earlier work"}, "[8]": {"target": "T1, Aβ42WT", "assay": "Attenuated total reflection infrared spectroscopy, Aβ42WT β-sheet formation", "format": "biochemical", "conditions": "Aβ42 50 μM in PBS, MBP 6.25 μM, 37°C, 24 h; second-derivative ATR-IR"}, "[9]": {"target": "T1, Aβ42WT", "assay": "Thioflavin T fluorescence assay, Aβ42WT fibril formation", "format": "biochemical", "conditions": "Aβ42 12.5 μM, MBP 1.56 μM, 37°C, 150 mM NaCl; triplicate"}, "[10]": {"test_system": "Aβ", "format": "binding, 5xFAD mouse", "conditions": "soluble cortical homogenate, polyclonal anti-MBP IgG, Fig. 1D"}, "[11]": {"test_system": "Aβ", "format": "binding, human", "conditions": "soluble cortical homogenate, polyclonal anti-MBP IgG, Fig. 1D"}}}
{"molecule": "Aβ42WT: wild-type Aβ42 peptide, synthesized by solid-phase Fmoc chemistry", "values": [{"measurement": "Time at which β-sheet formation begins to plateau (CD, 215 nm)", "setting": "[1]; Aβ42WT alone 50 μM, 37°C, 11 mM NaCl, results section", "value": 24, "unit": "h"}, {"measurement": "Length of oligomeric structures", "setting": "[2]; Aβ42WT alone, 6 h", "value": "up to 40 nm"}, {"measurement": "Average height of fibrillar structures", "setting": "[2]; Aβ42WT alone, 24 h", "value": "over 4 nm"}]}
{"molecule": "B1", "values": [{"measurement": "Binding affinity (KD) for Aβ40DI, ECP", "setting": "[3]", "value": "not detected"}, {"measurement": "Competition of ECP with MBP for binding to Aβ42", "setting": "[4]", "value": "did not compete for MBP binding to Aβ42"}, {"measurement": "Detectable binding to Aβ42WT ligand surface", "setting": "[5]; concentrations up to 32-fold greater than MBP, SPR", "value": "No binding could be detected"}, {"measurement": "Binding affinity (KD) for Aβ40WT, ECP", "setting": "[6]", "value": "not detected"}]}
{"molecule": "B2", "values": [{"measurement": "Inhibition of fibrillar assembly of Aβ40DI", "setting": "[7]", "value": "effectively inhibits the fibrillar assembly of Aβ40DI"}, {"measurement": "β-turn peaks at 1681 and 1675 cm^−1 on addition of MBP", "setting": "[8]", "value": "remained unchanged even with the addition of MBP"}, {"measurement": "Absolute CD ellipticity at 215 nm with MBP", "setting": "[1]; MBP alone and Aβ42WT (50 μM) with MBP (6.25 μM), 37°C, 0-36 h", "value": "remained low and decreased somewhat over the course of incubation"}, {"measurement": "Conformation of MBP alone by CD", "setting": "[1]; MBP alone, throughout the time-course, data not shown", "value": "characteristic random-coil conformation"}, {"measurement": "KD with Aβ42WT compared with Aβ40DI", "setting": "[5]; calculated KD between MBP and Aβ42WT versus affinity between MBP and Aβ40DI (ref [25])", "value": "comparable to the affinity between MBP and Aβ40DI"}, {"measurement": "KD with Aβ42WT compared with Aβ40WT", "setting": "[5]; calculated KD between MBP and Aβ42WT versus that between MBP and Aβ40WT (ref [25])", "value": "stronger than that between MBP and Aβ40WT"}, {"measurement": "Thioflavin-T fluorescence in samples containing Aβ42WT and MBP", "setting": "[9]", "value": "lack of thioflavin-T fluorescence"}, {"measurement": "Interaction of MBP with Aβ in 5xFAD mouse brain homogenate", "setting": "[10]", "value": "MBP can interact with Aβ peptides"}, {"measurement": "Oligomeric structures at 6 h in the presence of MBP", "setting": "[2]; 6 h, AFM and TEM", "value": "marked reduction"}, {"measurement": "Fibrils at 24 h in the presence of MBP", "setting": "[2]; 24 h, TEM", "value": "noticeably absent"}, {"measurement": "Interaction of MBP with Aβ in human AD brain homogenate", "setting": "[11]", "value": "MBP can interact with Aβ peptides"}]}
